B1: CPEB3 Ribozyme (parent)
chain: UAACAGGGGGCCACAGCAGAAGCGUUCACGUCGCAGCCCCUGUCAGAUUCUGGUGAAUCUGCGAAUUCUGCUGUAUAUCUC

In this series the parent is B1. Description: self-cleavage, relative activity (ratio to wild type); higher = more cleavage; in vitro, sequencing. The method in brief:
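For each CPEB3 ribozyme variant, relative activity is its cleaved/total read fraction divided by the unmutated ribozyme's. Barcoded error-prone PCR libraries were transcribed by T7 RNA polymerase (5 hours, 37°C) and held in DNase I for 15 min before an EDTA stop, with cleavage occurring throughout. Template-switching reverse transcription and Illumina sequencing were used to read the RNAs. A 5-read minimum applied, and results are the mean of three batches.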
For the variant UAACAGGGGGCCACAGCAGAAGCGUUCAUGUCGCAGCCCCUGUCAGAUUCUGGUGAAUCUGCGAAUUCCGCUGUAUAUCUC [C29U U69C], the self-cleavage came to 0.16.
Take UAACAGGGGGCCACAGUAGGAGCGUUCACGUCGCAGCCCCUGUCAGAUUCUGGUGAAUCUGCGAAUUCUGCUGUAUAUCUC [C17U A20G]: the self-cleavage worked out at 0.45.
The result for UAACAGGGGGCCACAGCAGAAGCGUUCACGUUGCAGCCCCUGUCAGAUUCUGGUGAGUCUGCGAAUUCUGCUGUAUAUCUC [C32U A57G] reads 0.22.
Consider UAACAGGGGGCCUCAGCAGAAGCGUUCACGUCGCAGCCCCUGUCAGAUUCUGGUGAAUCUGCGAAGUCUGCUGUAUAUCUC [A13U U66G], for which the self-cleavage is 0.81.
As for UAACAGGGGGCCACAGCAGAAGCGUUCACGUCGCAGCCCCUGUUAGAUUCUGGUGAAUCUCCGAAUUCUGCUGUAUAUCUC [C44U G61C], the self-cleavage worked out at 0.2.
Take UAACAGGGGGCCACAGCAGAAGCGUUCACGUCGCAGCCCCUGUCAGAUUCUGGUGUAUCUGCGAAUACUGCUGUAUAUCUC [A56U U67A]: the self-cleavage is 0.43.
Turning to UAACAGGGGGCCACGGCAGAAGCGUGCACGUCGCAGCCCCUGUCAGAUUCUGGUGAAUCUGCGAAUUCUGCUGUAUAUCUC [A15G U26G], the self-cleavage amounted to 0.55.
For UAACAGGGGGCCACAGCAGAAGCGUUCACGUCGCAGCCCCUGUCAGACUCUGGUGAAUCUGCAAAUUCUGCUGUAUAUCUC [U48C G63A], the self-cleavage was determined as 0.64.
For the variant UAACAGGUGGCCACAGCAGAAGCGUUCACGUCGCAGCUCCUGUCAGAUUCUGGUGAAUCUGCGAAUUCUGCUGUAUAUCUC [G8U C38U], the self-cleavage worked out at 0.04.
With UAACAGGGGGCCACAGCAGAAGCGUUCACGUCGCAGCACCUGUCAGAUUCUGGUGGAUCUGCGAAUUCUGCUGUAUAUCUC [C38A A56G], the self-cleavage is 0.26.
Next, UAACAGGGGGCCACAGCAGAAGCGUUCACGUCGCAGUCCCUGUCAGAUUCUGGUGAAUCUGCGAAUUCUGCUGUAAAUCUC [C37U U76A]: 0.55.
Next, UAACAGGGGGCCACAGCAGAAGCGUUCACGUCGCAGCCCCUGUCAGAUUCUGGUGAAUCUGCGAAUUCUACAGUAUAUCUC [G70A U72A]: 0.33.
Next, UAACAGGGGGCCACAGCAGAAGCGUUCCCGUCGCAGCCCCUGUCAGAUUCCGGUGAAUCUGCGAAUUCUGCUGUAUAUCUC [A28C U51C]: 0.51; UUACAGGGGGCCACAGCAGAAGCGUUCACGUCUCAGCCCCUGUCAGAUUCUGGUGAAUCUGCGAAUUCUGCUGUAUAUCUC [A2U G33U]: 0.32; AAACAGGGGGCCACAGCAGAAGCGUUCACGUCGCAGCCCCUGUCAGAUUCUGGUGAAUCUGCGAAAUCUGCUGUAUAUCUC [U1A U66A]: 0.42.
Take UAACAGGGGGCCAUAGCAGAAGCGUUCACGUCGCAGCCCCUGUCAGAUUCUGGUGGAUCUGCGAAUUCUGCUGUAUAUCUC [C14U A56G]: the self-cleavage was found to be 1.23.
Take UAACAGGGGGCCGCAGCAGAAGCGUUCACGUUGCAGCCCCUGUCAGAUUCUGGUGAAUCUGCGAAUUCUGCUGUAUAUCUC [A13G C32U]: the self-cleavage amounted to 0.18.
Next, UAACAGGGGGCCACAGCAGAAGCGUUCCCGUCGCAGCCCCUGUCAGAUUCUGGUGAAUCCGCGAAUUCUGCUGUAUAUCUC [A28C U60C]: 0.29; UAACAGGGGGUCACAGCAGAAGCGUUCACGUCGCAGCCCCUGUCAGAUUCUGGUGAAUCUGCGAAUUCUGCUGUAUGUCUC [C11U A77G]: 0.41; UAACAGGGGGCCACAGCAGAAGCGUUCACGUCGCAGCCCCUGUCACAUUCUGGAGAAUCUGCGAAUUCUGCUGUAUAUCUC [G46C U54A]: 0.15.
The result for UAACAGGGGGCCACAGCAGAAGCGUUCAUGUCGCAGCCCCUGUCAGAUUCUGGUGGAUCUGCGAAUUCUGCUGUAUAUCUC [C29U A56G] reads 0.38.
In the case of UAGCAUGGGGCCACAGCAGAAGCGUUCACGUCGCAGCCCCUGUCAGAUUCUGGUGAAUCUGCGAAUUCUGCUGUAUAUCUC [A3G G6U], the self-cleavage amounted to 0.57.
On to UAACAGGGGGCCACAGCAGAAGCGAUCACGUCGCAGCCCCUGUCAGAUUCUGGUGAAUCUGCGAAUUCUCCUGUAUAUCUC [U25A G70C], for which the self-cleavage turned out to be 0.07.
As for UAACAGGGGGCUACAGCAGAAGCGUUCACGUCGCAGCCCCUGUCAGAUUCUGGUGAAUCUGCGAAUUCUGCUGUAUAUAUC [C12U C79A], the self-cleavage was 1.19.
For the variant UAACAGGGGGCCACAGCAGAAGCGUUAACGUCGCAGCCCCUGUCAGAUUCUGGUGUAUCUGCGAAUUCUGCUGUAUAUCUC [C27A A56U], the self-cleavage amounted to 0.09.
On to UAACAGAGGGCCACAGCAGAAGCGUUCACGUCGCAGCCCCUGUCAGAUUCUGGUGAAUCUGCGAAUUCUGCCGUAUAUCUC [G7A U72C], for which the self-cleavage stood at 0.48.
Next, UAACAGGGGGUCACAGCAGGAGCGUUCACGUCGCAGCCCCUGUCAGAUUCUGGUGAAUCUGCGAAUUCUGCUGUAUAUCUC [C11U A20G]: 0.43; UAACAGGGGGCCACAGCAGAAGCGUUCACGUCGGAGCCCCUGUCAGAUUCUGGUGAAUCUGCGAAUUCAGCUGUAUAUCUC [C34G U69A]: 0.3.
UAACAGGGGGCCACAGCAGAAGCGUUCACGUCGCAGCCCCUGUCAGAUUCUGGUGAAUCUACGAAUUCUGCUGUAUGUCUC [G61A A77G]: the self-cleavage is 0.8.
The result for UAACAGGGGGCCACAGCAGAAGCGUUCACGUCGCAGCCCCUGUCAGAUGCUGGUGAAUCUGCGAAUUCUGCUGUAUAUUUC [U49G C79U] reads 0.77.
Consider UAACAGGGGGCCUCAGCAGAAGCGUUCACGUCGCAGCCCCUGUCAGAUUCUGGUGAAUCUGCGUAUUCUGCUGUAUAUCUC [A13U A64U], for which the self-cleavage was found to be 0.47.
For the variant UAACAGGGAGCCACAGCAGAAGCGUUCACGUCGCAGCCCCUGUCAGAUUCUGGUGAGUCUGCGAAUUCUGCUGUAUAUCUC [G9A A57G], the self-cleavage came out at 0.22.
Consider UAACAGGGGGCCACAGCAGAAGCGUUCACGUCGCAGCCCCUGUCAGAUUCUGGCGAAUCCGCGAAUUCUGCUGUAUAUCUC [U54C U60C], for which the self-cleavage worked out at 0.39.
Regarding UAACAGGGGGCCACAGCAGAAGCGUUCACGUCGCAGCCCCUGUCAGAUUCUGGCGAAUCGGCGAAUUCUGCUGUAUAUCUC [U54C U60G], the self-cleavage was found to be 0.5.

(Values after the RNAGym collection of RNA variant scans (doi:10.1093/nar/gkz1192).)
